Data from patent publication US20250012810A1 (NORDIC BIOSCIENCE A S, published 2025).

Biological target: T1, elongated peptide GPPGPPGRLVD (human)
T1 construct: The range follows from the stated cleavage site V1709-D1710 and the peptide length
T1 peptide: GPPGPPGRLVD
Experiment: competitive ELISA on biotin-… coated streptavidin plates
Description: A competitive ELISA using the monoclonal antibody raised against C7 was performed using the following procedure:
Streptavidin-coated plates were coated with 100 μL/well of 2.5 ng/mL biotin-labeled peptide (Biotin-[…], SEQ ID NO: 10) diluted in assay buffer (50 mM TBS-BTB, 2 g/L NaCl, pH 8.0) and incubated at 20° C., 300 rpm shaking for 30 minutes. Plates were washed five times in washing buffer ([…] TRIS, 50 mM NaCl, pH 7.2). Sample or standard peptide (20 μL) was added in double determinations and followed immediately by addition of 100 μL/well of 200 ng/mL HRP-labeled monoclonal antibody diluted in assay buffer and plates were incubated at 20° C., 300 rpm shaking for 3 hours. The standard peptide was a synthetic peptide ([…], SEQ ID NO: 1) with a starting concentration of 125 ng/ml and diluted 2-fold to create an 11 points calibration curve (FIG. 1). After incubation, plates were washed five times in washing buffer. A volume of 100 μL 3,3′, 5,5′-tetramethylbenzidine (TMB) was added and incubated for 15 min at 20° C. in the dark. To stop the enzyme reaction of TMB, […] 0.1% sulphuric acid was added and the absorbance was measured at 450 nm with 650 nm as the reference using an ELISA reader. A calibration curve was plotted using a 4-parametric mathematical fit model. […] All samples were measured within the range of the assay. […]

B1: monoclonal antibody raised against the C-terminal neo-epitope amino acid sequence …-COOH (C7) (antibody, mouse IgG1, kappa, V domains shown)
VH: EVQLQQSGPELVKPGASVKISCKTSGYTFIENTMNWVKQSHGKSLEWIGGINPKIGGSIYNQKFQDKATLTVDKSSSTAYMELRSLTSDDSAVYYCARGIYDEGWHFDVWGAGTTVTVSS
VL: DIVMTQAAFSNPVTLGTSASISCRSSQSLLYSNGITYLYWYLQKPGQSPQLLIYQMSNLASGVPDRFSSSGSGTDFTLRISRVEAEDVGVYYCAQNLELPWTFGGGTKLEIKR
notes: also called monoclonal antibody raised against C7; HRP-labeled monoclonal antibody
B1: no binding.
